# Results: article PMC11253607, “A conserved inhibitory interdomain interaction regulates DNA-binding activities of hybrid two-component systems in Bacteroides” (mBio, 2024)
# How the values were obtained:
# Test in all cases: Phos-tag gel autophosphorylation, initial rates, Michaelis-Menten fit
# Type in all cases: biochemical, Bacteroides thetaiotaomicron
# Details in all cases: phospho-donor, 50 mM Tris pH 7.5, 100 mM NaCl, 5 mM BME, 5 mM MgSO4, 5 µM protein
# NP(=O)(O)O [1] = test system: NP(=O)(O)O
# NP(=O)(O)O [2] = test system: NP(=O)(O)O; remark: listed apart in the source
# Text: Phos-tag gel autophosphorylation, initial rates, Michaelis-Menten fit on BT3334-RR | RECs have higher kcat and lower Km values than RRs
# NP(=O)(O)O [3] = test system: NP(=O)(O)O; remark: listed apart in the source
# Text: Phos-tag gel autophosphorylation, initial rates, Michaelis-Menten fit on BT4663-REC | RECs have higher kcat and lower Km values than RRs
# NP(=O)(O)O [4] = test system: NP(=O)(O)O; remark: listed apart in the source
# Text: Phos-tag gel autophosphorylation, initial rates, Michaelis-Menten fit on BT4124-REC | RECs have higher kcat and lower Km values than RRs
# NP(=O)(O)O [5] = test system: NP(=O)(O)O; remark: listed apart in the source
# Text: Phos-tag gel autophosphorylation, initial rates, Michaelis-Menten fit on BT4663-RR | RECs have higher kcat and lower Km values than RRs
# NP(=O)(O)O [6] = test system: NP(=O)(O)O; remark: listed apart in the source
# Text: Phos-tag gel autophosphorylation, initial rates, Michaelis-Menten fit on BT3334-REC | RECs have higher kcat and lower Km values than RRs
# NP(=O)(O)O [7] = test system: NP(=O)(O)O; remark: listed apart in the source
# Text: Phos-tag gel autophosphorylation, initial rates, Michaelis-Menten fit on BT4124-RR | RECs have higher kcat and lower Km values than RRs
substance,measurement,setting,value
BT4124-REC (Bacteroides thetaiotaomicron VPI-5482; C1262A/H1263D),Km,NP(=O)(O)O [1],13 ± 2 mM
same,kcat,NP(=O)(O)O [1],0.0267 ± 0.0017 s⁻¹
BT3334-RR (Bacteroides thetaiotaomicron VPI-5482),Km,NP(=O)(O)O [2],7.8 ± 2.4 mM
same,kcat,NP(=O)(O)O [2],0.0095 ± 0.00083 s⁻¹
BT4124-RR (Bacteroides thetaiotaomicron VPI-5482; C1262A/H1263D),Km,NP(=O)(O)O [1],8.5 ± 1.5 mM
same,kcat,NP(=O)(O)O [1],0.02 ± 0.0017 s⁻¹
BT4663-REC (Bacteroides thetaiotaomicron VPI-5482),Km,NP(=O)(O)O [3],14 ± 4 mM
same,kcat,NP(=O)(O)O [3],0.0135 ± 0.0017 s⁻¹
BT4124-RR (Bacteroides thetaiotaomicron VPI-5482; C1262A/H1263G),Km,NP(=O)(O)O [1],13 ± 3 mM
same,kcat,NP(=O)(O)O [1],0.0183 ± 0.0017 s⁻¹
BT4124-REC (Bacteroides thetaiotaomicron VPI-5482),Km,NP(=O)(O)O [4],10 ± 1 mM
same,kcat,NP(=O)(O)O [4],0.0233 ± 0.0017 s⁻¹
BT4663-RR (Bacteroides thetaiotaomicron VPI-5482),Km,NP(=O)(O)O [5],33 ± 6 mM
same,kcat,NP(=O)(O)O [5],0.0035 ± 0.00033 s⁻¹
BT3334-REC (Bacteroides thetaiotaomicron VPI-5482),Km,NP(=O)(O)O [6],4.5 ± 0.8 mM
same,kcat,NP(=O)(O)O [6],0.02 ± 0.0017 s⁻¹
BT4124-RR (Bacteroides thetaiotaomicron VPI-5482),Km,NP(=O)(O)O [7],17 ± 2 mM
same,kcat,NP(=O)(O)O [7],0.00833 ± 0.0005 s⁻¹
